5 molecules from patent publication US20140322129A1 (Genentech, published 2014) can be followed below.

The target of assay [1] is T1, irrelevant (Ig-V)-B7-H4 (Ig-C; D158-G236 including TM/CD D237-K282) chimeric membrane protein (Homo sapiens (Human), UniProt Q7Z7D3 158-282).
T1 construct: Transiently expressed on 293 cells; also called construct-88B; B7-H4 Ig-C domain; not shown: irrelevant Ig-V domain
T1 sequence: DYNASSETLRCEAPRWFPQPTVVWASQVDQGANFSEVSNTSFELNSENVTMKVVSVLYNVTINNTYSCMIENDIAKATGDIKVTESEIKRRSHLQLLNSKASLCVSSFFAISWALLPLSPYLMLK
Briefly: FACS of Dylight-488 or -650 labelled antibody on 293 cells transiently transfected with construct-88B. The text has this: To determine whether the B7-H4 antibodies bind to either the Ig-V or Ig-C domain of B7-H4, chimeric Ig domain molecules were engineered that contain either a B7-H4 (IgV; G28-F150 including spacer S151-V157)—irrelevant (Ig-C) (construct-88) or an irrelevant (Ig-V)-B7-H4 (Ig-C; D158-G236 including TM/CD D237-K282) (construct-88B) membrane protein using standard molecular cloning methods. N-terminal or cytoplasmic tags were attached to confirm that 293 cells transfected with these constructs express protein on the cell membrane (data not shown). Briefly, 293 cells were transiently transfected with constructs 88 & 88B using polyfect. After 48 hours, the cells were stained with 10 μg/ml of Dylight-488 or -650 labeled ch9B9, ch1D11, ch22C10 or ch32D6 for 30-40 minutes at 4° C., washed and analyzed on a BD FACS calibur.

Assay [2] addresses T2, cynomolgus monkey B7-H4 (cynomolgus monkey, UniProt Q7Z7D3 29-282 (human entry)).
T2 construct: Expressed on stably transfected 293 cells; also called cyno B7-H4
T2 chain: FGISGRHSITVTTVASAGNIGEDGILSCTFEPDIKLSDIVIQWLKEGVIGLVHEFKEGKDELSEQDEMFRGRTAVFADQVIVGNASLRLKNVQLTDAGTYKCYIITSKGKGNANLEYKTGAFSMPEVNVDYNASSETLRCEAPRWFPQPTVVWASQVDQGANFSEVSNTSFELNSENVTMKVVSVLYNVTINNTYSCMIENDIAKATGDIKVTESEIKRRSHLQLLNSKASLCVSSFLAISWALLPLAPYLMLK
Briefly: FACS titration on 293-cyno B7-H4 cells, geometric mean fluorescence. Here is the method:
The small-scale preps were initially screened by FACS and Scatchard Analyses to determine species-specificity and affinity (Kd) to recombinant and endogenous B7-H4. Initial EC₅₀ and species specificity were determined by incubating different concentrations (0-10 μg/ml) of the humanized variants with 293 cells overexpressing recombinant human-, cynomolgus-, or mouse-B7-H4, and the tumor cell line, MX-1, expressing endogenous human B7-H4, at 4° C. for 40 minutes followed by a wash and staining with a secondary goat-anti-human IgG antibody conjugated to Dylight-650 for 20 minutes at 4° C. The fluorescent signal was acquired with a BD FACS Calibur and EC₅₀ values were determined with the Graph Pad program Prism 4.

B1: ch32D6 (antibody, human IgG1, V domains shown)
VH: EVQLQQSGPDLVKPGASVKISCKASGYSFTGYYIHWMKQSHGKSLEWIGRVNPNNGDPIYNQKFRGKAILTVDQSSNTAYMELRSLTSEASAVYYCARVLFYYGSPFAYWGQGTLVTVSA
VL: DIVMTQSPSSLIVTAGEKVTMSCRSSQSLFDSGSQRNYLTWFHQKPGRPPKLLIYWASTRESGVPDRFTGSGSGTDFTLTISSVQTEDLAVYFCQNDYSFPFTFGSGTKLEEK
notes: also called chimeric 32D6
As for B1, the binding result in assay [1] is listed as “no binding (tested: 10 ug/ml)”.

B2: ch22C10 (antibody, human IgG1, V domains shown)
VH: QVQLQQPGAELVKPGTSVKLSCKASGYTFTNFWIHWVIQRPGQGLEWIGEIDPSDSYTNYNQKFKGKATLTVDKSSNTAYMQLSSLTSEDSAVYYCSREITTVDYWGQGTTLTVSS
VL: QIVLTQSPTIMSASPGEKVTLTCSATSSISYMHWYQQKPGTSPKGWIYDTSKLAHGVPARFSGSGSGTSYSLTISSMEAEDAATYYCHQRRSYPFTFGSGTKLEIK
notes: also called chimeric 22C10; ch2210
As to B2, in assay [1], the binding result was “no binding (tested: 10 ug/ml)”.

B3: ch1D11 with light chain C43G (antibody, V domains shown)
VH: QVQLQQSGAELVRPGTSVKMSCKASGYTFTSYWIGWAKQRPGHGFEWIGDIYPGGGYTNYNEKFKGKATLTADKSSSTAYMQFSSLTSEDSAIYYCARLDGSSYRGAMDSWGQGTSITVSS
VL: DIQMTQSPSSLSASLGGKVTITCKASQGFNKYVAWYQHKPGQGPRLLIHYTSTLQPGIPARFSGSGSGRDYSFSISNLEPEDSATYFCLQYGNLLYAFGGGTKLEIKR
notes: Dylight-488 or -650 labelled in the assay; also called slightly modified version of ch1D11
Take B3: the binding result in assay [1] is given as “no binding (tested: 10 ug/ml)”.

B4: hu1D11.v1.8 (antibody, V domains shown)
VH: EVQLVQSGAEVKKPGASVKVSCKASGYTFTSYWIGWVRQAPGQGLEWIGDIYPGGGYTNYNEKFKGRATITRDTSTSTAYLELSSLRSEDTAVYYCARLDGSSYRGAMDSWGQGTLVTVSS
VL: DIQMTQSPSSLSASVGDRVTITCKASQGFNKYVAWYQQKPGKAPKLLIYYTSTLQPGVPSRFSGSGSGRDYTLTISSLQPEDFATYYCLQYGNLLYAFGQGTKVEIKR
notes: also called h1D11.v1.8
Consider B4, for which the binding result in assay [2] is listed as “binds”.

B5: ch9B9 (antibody, human IgG1, V domains shown)
VH: QVQLQQSGAELMKPGASVKMSCKATGYTFSSYWIEWVKQRPGHGLEWIGEILPGTSITTYNAKFKVKATFTADTSSNTAYMQLSSLTSEDSAVYFCARYYFGSSSFYFDYWGQGTSLTVSS
VL: QAVVTQESALTTSPGDTVTLTCRSSTGAVTTSNYANWVQEKPDHLFTGLIGGTNNRVPGVPARFSGSLIGDKAALTITGAQTEDEAMYFCALWYNNHWVFGGGTKLE
notes: also called chimeric 9B9
As to B5, the binding result in assay [1] is recorded as “no binding (tested: 10 ug/ml)”.
